According to the PETadex activity labels:

Substrate: BHET
Settings: 120 h

Row | Protein | plate clearing
1 | unnamed (protein) MKNITIRSTVRAAVAATLAATAVSGFAQTTAPTSASLNATAGPLAVSTSTVTAPRGFGGGTIYYPTTQARYGVIAISPGFTATETSLAWLGRRIATHGFVVITLNTLTTLDQPASRATQLMAALNHVVNSSPAAVKARIDTARLAVAGHSMGGGGALIAARDNPTLKASYSLTPWNTNSSFSTVRVPTMIVGADGDTIAPVGTHARPFYAALPGTTSKAYGELNNGTHFSPNSTNTPIGRYGVAWMKRFLDADTRYSTFLCGAEHTSYATALVFDRYNQNCPY | not clears the plate
2 | unnamed (protein) MKTSVTNFAKVTLTVATLLASAIASAQYTKGPDPTVAGLERDGSFTVRTTTVSSLAAVGFGKGTIYYPSAAGSYGVIAVSPGFTAYQSSISWIGSRLASHGFVVITIDTNTTSDQPDSRGSQLKAALDKVVSLSKSSSNVLYNKVDASRLAVAGHSMGGGGTLSAARDNPSYKAAVPLAPWHTTKSWPTLTVPTLIIGGEGDTVAGVSSHSIPFYTSISNSTKKAYMELNGEDHFFPQDATQYPLVGKYMISWFKRFVDNDTRYSAFICGAPHQTQIAVASKISDYRSNC | not clears the plate
3 | unnamed (protein) MIHHFSVRALLAAGALLASAAVSAQTNPYERGPAPTTSSLEASRGPFSYQSFTVSRPSGYGAGTVYYPTNAGGPVGAIAIVPGFTARQSSINWWGPRLASHGFVVITIDTNSTLDQPDSRSRQQMAALNQVATLSRTSSSPIYNKVDTSRLGVMGWSMGGGGSLISARDNPSLKAAAPQAPWSSSKNFSSVTVPTLIIACENDSIAPVNQHADPFYDSMSRNPREFLEINGGSHSCANSGNSNQPLLGKKGVAWMKRFIDNDTRYTSFACSNPNSTRVSDFRVAACN | not clears the plate
4 | unnamed (protein) MKSFVKMCVGCVLALVMLAGISSADYRRGPNPSDSMLEARTGPFDFERSTVSRLSAGGYGGGTLFYPTNTNEGPFAGIVVCPGYMESDGQVDWWGPRLASNGFVVFVMQPQNTYMNQPSQRGNQMLDALDDLVSWNNSRNHAIYGLLDPNRLGLMGHSMGGGGTLIAAEDEANNPAVKAAIPLAPYALEKDFSRITCPTMIVACGADMIAPVAQHAMPFYRSLSDSIDKMFIEFAGDSHFCVIDGNMHMPTLGKLGIAWMKVFMDEDARYLTFLNDTNYGATMEVSRFQSNRPYSVPGGGTSGDCQQWTSSNDQHVSAGRAYTQQETVGCDTVTTYYAVGSNMSIGTSGYSSTTLHSSDGGNSYYTGSCP | not clears the plate
5 | unnamed (protein) MATMPSGTTALLSVTFFCTTPPSALSLKRHRYPSFRFRSPISVFLSRTHDYMQCRAPWGCMYSLGTPRGSVASRRTINEFLVGGVTQMNTKVQGSSASSAPKVGYPAKSLLAAGILLASFAANADVLFQEDFNAGLGQFTSGGDVTVTSSGARMQGCYGCTDGSITSGAISTVGFNTISLTFTRSTTGLDSGEAGIAEFSTNGSTWTTLESVRTASGARTVALPSTAAGQSALRIRFRINASLSSEYYTVDGVRVEGTPDGTPCTDCPPTGETAIGPDPTTATLEATAGSFTVATINVPSSVTGYGGGVIYYPTAAGTYGVVAMCPGYTASASSLAWWGTRLASWGLIVHIIDTNSTGDFPASRATQLIAALDYVKALNTSSTSPLRGKVANREAVSGHSMGGGGTLIAANNNASRTTLRAAFAMTPWSSSPDSFPSIRAATFVLGCESDNVASVSSHAYPFYVSIPSTVKKAYGEINNADHYCPTQSNPYKAQLGKYGVAWMKRHLEGDTRFDPWLCGAPHQQVVSGTFWSRYLSTCPY | not clears the plate
6 | unnamed (protein) MKKSIFSKLVVSAGALLLSSTLYASGGGSGGGGSVPPVGNNPCGPDPSSSALSRTGSSGPFSVATKNVSSFSASGFGGGTIHYPTNSNCGRMGGIAVVPGYVSYESSIEWWGPRLASWGFVVITINTNSIYDQPNSRADQLSAALDHIIDDSTVGSLVDPDRLGAIGWSMGGGGSLKLATDRARVRAIIPQAPWYSGSYGSMDTPAFMIACENDAIAPTSSHVDDFYRDASGPKMKIEVNNGSHYCANSGYNESLLGKPGIAWMKRYIDGDTRYNQFLCGNESYGSSYEVSDYDYASCP | not clears the plate
7 | unnamed (protein) MKTKRHRTATTTVPLPKRSRLARLALAAALLLLSFAAQAQVVIFQENFNSGLGQFTASGTVSTSSGGARMQGCYGCTDGAITSSPISTVGFTNLSLSFDRTTTGLDSGEAGIAEYSTNGSTWTVIESTQSTSSGRVTIALPAAAAGQAALRLRFRVNASLSSETYTVDNIQLEGTPGGGPGGNPYQRGPDPTAALLEASTGPFTYATTTVSSTAASGYGGGTIYYPTNTAGPFAAIAVCPGYTATQSSISWWGPRLASHGFVVITIDTNSTSDQPSSRATQLMAALNQLVTFSNTSGHPIYGKVDPNRLGVMGHSMGGGGTLIAARDNPTLKAAIPLAPWNSSTNFSGVTVPTLIVACESDTIAPVSSHALPFYNSIPSSTKKAYLEINNGDHFCVTTGNSYKAILGKYGVAWMKRFLDNDTRYSPFLCGAPHQADLSGSAISEYRDNCPY | clears the plate (z > 3 vs empty vector)
8 | unnamed (protein) MRPSSSSLHTAVPLRPRSRAMTALIALATTLGLALALLTAAAPPAAAADLLSQGRPATSSSTENTSTPASAAVDGNTGTRWSSTFSDPQWLSVDLGATATISQVVLRWETAYARAFQIQTSTNGTAWTTVHSSTSGTGGVQTLDVNGNGRYVRMLGTQRGTTYGYSLFEFQVYGSGGGTPPGNGIPDPTATSLETANGPLTTANYTVPNPSGYGSGTVTYPTSSGSYPSVVLMPGYQGTQQNLQWLAPRLASWGFVVVNVGTNTLTDDPESRGRQISAAGTQLLALGNAAGNPLSGKVNGTLGAVGHSMGGGGVMAALRDDSRFRAGVPTAPYHPNANFSSVTEPTFFLTCQSDSVAHGNTYAVPWYNSMSQAEKLYIEVPGDHLCPMTGSGNKAKQGKWIVSFLSLWLRADTRFGPFLCGPVRDPDKNNTSLVTRWMDTCAF | not clears the plate
9 | unnamed (protein) MSTGTRVPHAGRAATAPVEGPRQRGRKMQHSLSTSRSRKRVTGILASLAVAVGVGIAAGPVAHGADNPHERGPDPSESSIEAVRGSYSISDRNVSSWVSGFGGGTIYYPTTTSDGDFGAVVISPGYTGTESTISWLGPRLASQGFVVLTMATNSIYDQPDSRARQLQAALDYLTDDSPVADRIDPDRLALMGHSMGGGGTLRAVDDNPDIKAAIPMTPWHLKKDWSSVTTPTLIFGAEDDSVARHETHAEPFYESFDRDLPKAYLELDGASHFAPNYSNTTIAKYSISWLKRFVDDDERYTQFLCPGPSTGWFSDVEKYESSCPL | not clears the plate
10 | unnamed (protein) MKTTTFKKSALSALTLLFSLSAFSGGGGGDDGNNDQLPAPDTCNSNCGYEIGPNPTLSFLEASQGPLSVSTTNVSSSVDGFGGGTIYYPTNTSQEMAAIAVAPGFTNTQSAIQWWGPILASHGFVVITIDTNGRFDQPESRSRQLDAALSYLISEGNRSSSPISGLVDENRLATMGFSMGGGGTLRSASRNRLSAAVPLAPWNTGGNNFDQIGVPTLIFACENDSTARVNSHASPFYNRIPSSTDKAYLEINNGPHNCANGNNSSNNALLSTYGVSWMKRFLDKDSRYNQFLCGPNHEANSRISEYRDTCNY | not clears the plate
11 | unnamed (protein) MRDPPEYGTQTLHYPTDADPPFAAIAIVPGFVSPESSIIEWGPFLASHGIVVLTIGTNSGSDSPEIRSTALLAALETIKSEHARAGSPIEGKIDTTRLAVGGWSMGGGGTLLTITAHPELKAGLAICPWYTNAFAFAGNTVPVIMFAGTADVLAGGMSQGFYDAIPASTPKMLFEIAGADHFYANNPLMPNVQVGLYGLSWLKVFLEGDDRYRQFLLGPPQNASDFRTTVQ | not clears the plate
12 | unnamed (protein) MKTNRRRRLALAAAALLLSVAAQAQNGSAPPGPDPDPDPNPPESDNPYQRGPDPTAASLEASSGPFAVSTTTVSSASGFGGGTIYYPTNTEGPFAAIAVVPGFVGTESSIDWWGPRLASHGFVVITIDTNSVFDQPDSRATQLMAALDYVISQSNTSSSPISGMVDSNRLGVMGHSMGGGGSLIAARDNPTLKAAIPLAPWNSSTNFSAITVPTLIIACENDTVAPVSSHASPFYNSIPSSTDKAFLEINGGDHFCANSGNSNKDILGKYGVAWMKRFLDNDTRYDPFLCGPNHEADGSAISEYRDTCPY | not clears the plate
13 | unnamed (protein) MRKILLSVFTILSLNSYSQCDDVISSSITNPGIYEVATLSESDGVRNGADYYGSTIYYPINTNNFLGSIVIVPGFVSYEFSIQEWGPFLASHGIVCMTIGTNSIFEQPNQRATALLDAMVSLKEENSRNASPLNSKLDIDNIALGGWSMGGGGAQIAAKMDSSIKVVIALCPWLETGLISEEYLNHQAPILFISAEYDGIANASLHATPQYELSSETTPKLIYEVANGGHTVANYPTSGNGEVGLIALSWLKKYLLNEDCYCPILLESPETASMYMTNINCENSNLNAQEIECTEGWSIISTYVNPINTNFSNFIAPVVNNLIIAKDYIGNAYLPEWDYNGIGNIEQGQGYLIKMLNTMSLAVVGEQIIASENSISLNEGWNLFANFNTESTNSDLSFAALVETENVIIIKDYIGNAMLPEWEFNGLGDLQPGRGYQIKVTANCELQY | not clears the plate
14 | unnamed (protein) MPMSLASASTLSGRAYSRSMRSRTRRRRARSRRRVPPVSARAETSKGSIGMPSSYGGARRGFSLGHPRGVRRGCVQATRRVRFLDWPRPAASRGAGDPSRGDTMTGTISSRIAMRAVACCIGLFAFTAGSASAQIGPDPTSASLNATAGSFAVSTSRVTLARGFGGGTIYYPTAAGSYGVVAISPGFTATESSIAWLGRRLATHGLVVITMNTNTTLDQPASRATQLMAALNHVVNSASSTVRSRVDSTRLAVAGHSMGGGGALIAAEDNPTLKAALPLTPWNLSTSFTQVRVPTLIVGSDGDTVAPVAAHARPFYASLPATTFKAYAELNAASHFTPNSTNTPIGRYGVTWMKRFVDADTRYSPFLCGAPHTAYATALVFDRYSQNCPY | not clears the plate
